Read-outs that look alike come from different tables or passages of the source.
T1: factor Va (Homo sapiens, UniProt P12259)
T1 chain 1: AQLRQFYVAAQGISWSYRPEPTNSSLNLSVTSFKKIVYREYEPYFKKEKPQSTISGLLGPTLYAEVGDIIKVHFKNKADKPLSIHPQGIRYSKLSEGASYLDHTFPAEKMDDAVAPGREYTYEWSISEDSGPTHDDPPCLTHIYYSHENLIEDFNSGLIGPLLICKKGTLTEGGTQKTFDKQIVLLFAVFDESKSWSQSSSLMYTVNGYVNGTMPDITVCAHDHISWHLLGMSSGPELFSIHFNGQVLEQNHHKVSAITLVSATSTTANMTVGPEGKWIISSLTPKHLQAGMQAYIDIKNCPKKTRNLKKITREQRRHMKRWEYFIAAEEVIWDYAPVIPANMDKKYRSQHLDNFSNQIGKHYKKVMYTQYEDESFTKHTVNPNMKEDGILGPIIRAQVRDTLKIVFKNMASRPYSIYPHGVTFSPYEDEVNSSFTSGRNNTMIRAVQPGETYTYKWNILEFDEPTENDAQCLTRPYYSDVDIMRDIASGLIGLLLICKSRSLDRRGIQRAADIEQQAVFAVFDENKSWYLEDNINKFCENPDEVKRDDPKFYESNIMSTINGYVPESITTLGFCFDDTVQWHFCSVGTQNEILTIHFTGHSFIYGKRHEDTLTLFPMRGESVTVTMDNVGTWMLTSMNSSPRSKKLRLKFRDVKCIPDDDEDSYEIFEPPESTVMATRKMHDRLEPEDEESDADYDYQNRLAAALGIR
T1 chain 2: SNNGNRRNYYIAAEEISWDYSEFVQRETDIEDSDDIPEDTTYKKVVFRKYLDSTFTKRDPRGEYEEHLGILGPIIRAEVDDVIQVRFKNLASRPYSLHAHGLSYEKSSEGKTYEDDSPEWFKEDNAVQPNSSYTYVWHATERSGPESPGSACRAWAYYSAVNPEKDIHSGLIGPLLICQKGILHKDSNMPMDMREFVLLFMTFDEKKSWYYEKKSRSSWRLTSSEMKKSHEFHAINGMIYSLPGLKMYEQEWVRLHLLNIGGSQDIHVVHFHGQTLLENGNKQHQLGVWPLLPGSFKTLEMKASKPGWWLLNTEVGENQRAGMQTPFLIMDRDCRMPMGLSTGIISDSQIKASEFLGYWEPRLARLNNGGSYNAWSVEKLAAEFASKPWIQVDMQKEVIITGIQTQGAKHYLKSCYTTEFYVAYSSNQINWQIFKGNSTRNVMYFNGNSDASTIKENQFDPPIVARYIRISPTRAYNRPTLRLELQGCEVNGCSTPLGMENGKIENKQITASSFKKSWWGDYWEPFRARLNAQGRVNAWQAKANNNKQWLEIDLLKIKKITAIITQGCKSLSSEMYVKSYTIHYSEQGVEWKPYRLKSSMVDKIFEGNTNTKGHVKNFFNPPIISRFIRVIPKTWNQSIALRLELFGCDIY


Assays:
OG488-EGR-labeled E2-fXa = assay: fluorescence polarisation
[1] = target: OG488-EGR-labeled wild-type factor Xa; assay: fluorescence polarisation
[2] = target: OG488-EGR-labeled fXa-R165A; assay: fluorescence polarisation
[3] = target: OG488-EGR-labeled fXa-des-Gla; assay: fluorescence polarisation
[4] = target: OG488-EGR-labeled fXa-R165A; assay: fluorescence polarisation; remark: listed apart in the source
factor Va = target: T1, factor Va; assay: prothrombinase assay

Kd (OG488-EGR-labeled E2-fXa)	Kd [1]	Kd [2]	Kd [3]	Kd [4]	Kd (factor Va)	Molecule
62 nM	1.5 nM	10.3 nM	58 nM	10.5 nM	–	human plasma factor Va (from UniProt P12259 29-737; P12259 1574-2224) (natural protein)
–	–	–	–	–	0.5 nM	factor Xa (protein, PCPS vesicles) IVGGQECKDGECPWQALLINEENEGFCGGTILSEFYILTAAHCLYQAKRFKVRVGDRNTEQEEGGEAVHEVEVVIKHNRFTKETYDFDIAVLRLKTPITFRMNVAPACLPERDWAESTLMTQKTGIVSGFGRTHEKGRQSTRLKMLEVPYVDRNSCKLSSSFIITQNMFCAGYDTKQEDACQGDSGGPHVTRFKDTYFVTGIVSWGEGCARKGKYGIYTKVTAFLKWIDRSMKTRGLPKAKSHAPEVITSSPLK
